Source: paper PMC4963994, “Recombinant expression of Chlamydia trachomatis major outer membrane protein in E. Coli outer membrane as a substrate for vaccine research” (BMC Microbiology, 2016)

Molecular target: the molecule itself
Test: SDS-PAGE and western blot; purified MOMP in SDS loading buffer, all samples heated and reduced; NuPAGE gel; blot with anti-CtE EB mouse sera; SDS-resistant dimeric and oligomeric forms

B1: recombinant C. trachomatis Serovar E major outer membrane protein, expressed in the E. coli outer membrane with a PelB leader and purified (natural protein)
chain: LPVGNPAEPSLMIDGILWEGFGGDPCDPCTTWCDAISMRMGYYGDFVFDRVLKTDVNKEFQMGDKPTSTTGNATAPTTLTARENPAYGRHMQDAEMFTNAACMALNIWDRFDVFCTLGASSGYLKGNSASFNLVGLFGDNENQSTVKTNSVPNMSLDQSVVELYTDTAFSWSVGARAALWECGCATLGASFQYAQSKPKVEELNVLCNAAEFTINKPKGYVGQEFPLALIAGTDAATGTKDASIDYHEWQASLALSYRLNMFTPYIGVKWSRASFDADTIRIAQPKSATAIFDTTTLNPTIAGAGDVKASAEGQLGDTMQIVSLQLNKMKSRKSCGIAVGTTIVDADKYAVTVETRLIDERAAHVNAQFRF
notes: Major outer membrane protein (MOMP), C. trachomatis strain E/12-94 Serovar E, ORF O175_03780; also called rCtE-MOMP; rMOMP
  binding result: binds
